Data: patent US20210269542A1 (POTENZA THERAPEUTICS, published 2021)
Positions count from the first letter of the chain named.

Columns and labels:
Test in all cases: BLI (Octet): GITR-Fc mutant on anti-human Fc sensor, ABP1 Fab in solution
[1] = target: T1, human GITR-Fc mutant Y61A (human, UniProt Q9Y5U5 26-162)
T1 chain: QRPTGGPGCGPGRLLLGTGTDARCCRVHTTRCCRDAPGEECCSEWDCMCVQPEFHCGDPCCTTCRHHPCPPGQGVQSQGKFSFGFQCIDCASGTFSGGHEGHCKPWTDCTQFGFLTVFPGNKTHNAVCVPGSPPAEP
Protocol: (§1) Binding was assessed by Bio-Layer Interferometry (BLI) using the Octet platform.

[2] = target: T2, human GITR-Fc mutant E65A (human, UniProt Q9Y5U5 26-162)
T2 chain: T1 chain with A36Y, E40A
Protocol: as §1

[3] = target: T3, human GITR-Fc mutant C66D (human, UniProt Q9Y5U5 26-162)
T3 chain: T1 chain with A36Y, C41D
Protocol: as §1

[4] = target: T4, human GITR-Fc mutant R56A (human, UniProt Q9Y5U5 26-162)
T4 chain: T1 chain with R31A, A36Y
Protocol: as §1

[5] = target: T5, human GITR-Fc mutant R59A (human, UniProt Q9Y5U5 26-162)
T5 chain: T1 chain with R34A, A36Y
Protocol: as §1

[6] = target: T6, human GITR-Fc mutant C67A (human, UniProt Q9Y5U5 26-162)
T6 chain: T1 chain with A36Y, C42A
Protocol: as §1

[7] = target: T7, human GITR-Fc mutant P62A (human, UniProt Q9Y5U5 26-162)
T7 chain: T1 chain with A36Y, P37A
Protocol: as §1

[8] = target: T8, human GITR-Fc mutant D60A (human, UniProt Q9Y5U5 26-162)
T8 chain: T1 chain with D35A, A36Y
Protocol: as §1

[9] = target: T9, human GITR-Fc mutant E64A (human, UniProt Q9Y5U5 26-162)
T9 chain: T1 chain with A36Y, E39A
Protocol: as §1

[10] = target: T10, human GITR-Fc mutant C58A (human, UniProt Q9Y5U5 26-162)
T10 construct: Point mutation in the human GITR extracellular domain with an Fc tag
T10 chain: T1 chain with C33A, A36Y
Protocol: as §1

binding result [1]: no binding | binding result [2]: binds | binding result [3]: no binding | binding result [4]: binds | binding result [5]: no binding | binding result [6]: no binding | binding result [7]: binds | binding result [8]: binds | binding result [9]: no binding | binding result [10]: no binding
B1: ABP1 Fab (Fab, V domains shown)
VH: QVQLQESGPGLVKPSETLSLTCAVSGYSISSGLGWGWIRQPPGKGLEWIGGIYESGSTYYNPSLKSRVTISVDTSKNQFSLKLSSVTAADTAVYYCAHERVRGYGDYGGHHAFDIWGQGTMVTVSS
VL: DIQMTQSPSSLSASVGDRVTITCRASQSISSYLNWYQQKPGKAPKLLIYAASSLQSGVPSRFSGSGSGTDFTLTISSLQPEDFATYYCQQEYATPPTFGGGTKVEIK
